In patent US20210388079A1 one finds % of CD8+ T-cells in the tetramer-positive gate data, which are given here for one molecule.

In assay [1] the target is NYESO1-001 (tetramer, row label of Figure 31) (human). Nature of the assay: flow cytometry, HLA-A*02/NYESO1-001 tetramer staining of TCR-RNA-electroporated CD8+ T-cells; mock cells 1.09%.
Assay [2] concerns the target HLA-A*02/SPINK2-001 tetramer (human). The experiment in a line: flow cytometry, HLA-A*02/SPINK2-001 tetramer staining of TCR-RNA-electroporated CD8+ T-cells; mock cells 0.97%.

B1: TCR R49P2B7, alpha and beta chains expressed in human primary CD8+ T-cells by RNA electroporation (TCR, V domains shown)
V domain 1: AQSVTQLGSHVSVSEGALVLLRCNYSSSVPPYLFWYVQYPNQGLQLLLKYTTGATLVKGINGFEAEFKKSETSFHLTKPSAHMSDAAEYFCAVRIFGNEKLTFGTGTRLTIIP
V domain 2: DVKVTQSSRYLVKRTGEKVFLECVQDMDHENMFWYRQDPGLGLRLIYFSYDVKMKEKGDIPEGYSVSREKKERFSLILESASTNQTSMYLCASSLMGELTGELFFGEGSRLTVLE
For B1, the figures for the % of CD8+ T-cells in the tetramer-positive gate in assay [1] and in assay [2] were 0.96% and 30%, respectively.
